This note sets out measurements from US20230399394A1 (SUNSHINE GUOJIAN PHARMACEUTICAL SHANGHAI, published 2023).

Positions count from the first letter of the chain named.

For experiment [1], the target named is T1, Pep1 (human, N-terminal biotin).
T1 construct: Synthetic 20-mer of human IL-33
T1 peptide: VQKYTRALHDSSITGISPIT
As to the kind of experiment: ELISA, biotinylated peptide on streptavidin plate. The procedure: (§1) To determine the binding activity of antibody to each polypeptide fragment, the ELISA plate was pre-coated by biotin-avidin (SA) which was diluted in coating solution (50 mM carbonate coating buffer, pH 9.6) to 2 μg/ml at 4° C. overnight. The plate was washed with PBST for 3 times, and then blocked with 2% BSA prepared in PBS at room temperature for 2 h with 200 μL/well. The plate was washed once with PBST, and 864F3 and 874F7 with final concentrations of 10 μg/mL were added at 100 μL/well, respectively, and the plate was incubated at room temperature for 1 h. The plate was washed with PBST for 3 times, and the goat anti-mouse IgG labeled by HRP was added and placed at 37° C. for 30 min. After washing the plate with PBST for 3 times, the plate was patted on the absorbent paper to remove residual droplets as far as possible. 100 μl TMB developing solution was added to each well, and the plate was placed at room temperature (20±5° C.) for 5 minutes away from light; 50 μl 2M H₂SO₄ terminating solution was added to each well to terminate the substrate reaction. OD values were read at 450 nm on the microplate reader to analyze the binding ability of the antibody to each polypeptide fragment. The experimental results are shown in […]

In experiment [2] the target is T2, Pep4 (human, N-terminal biotin).
T2 construct: Synthetic 20-mer of human IL-33
T2 peptide: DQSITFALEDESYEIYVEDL
As to the kind of experiment: ELISA, biotinylated peptide on streptavidin plate. The procedure:
as §1

Experiment [3] addresses T3, Pep8 (human, N-terminal biotin).
T3 construct: Synthetic 20-mer of human IL-33
T3 peptide: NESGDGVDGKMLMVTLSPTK
As to the kind of experiment: ELISA, biotinylated peptide on streptavidin plate. The procedure: as §1

Experiment [4] concerns the target T4, Pep10 (human, N-terminal biotin).
T4 construct: Synthetic 20-mer of human IL-33
T4 peptide: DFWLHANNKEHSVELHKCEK
As to the kind of experiment: ELISA, biotinylated peptide on streptavidin plate. The procedure:
as §1

The target in experiment [5] is T5, Pep12 (human, N-terminal biotin).
T5 construct: Synthetic 20-mer of human IL-33
T5 peptide: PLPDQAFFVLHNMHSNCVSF
As to the kind of experiment: ELISA, biotinylated peptide on streptavidin plate. The procedure: as §1

Experiment [6] has as its target T6, Pep14 (human, N-terminal biotin).
T6 construct: Synthetic 20-mer of human IL-33
T6 peptide: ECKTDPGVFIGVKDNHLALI
As to the kind of experiment: ELISA, biotinylated peptide on streptavidin plate. The procedure: as §1

Experiment [7] deals with T7, Pep16 (human, N-terminal biotin).
T7 construct: Synthetic 20-mer of human IL-33
T7 peptide: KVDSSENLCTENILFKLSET
As to the kind of experiment: ELISA, biotinylated peptide on streptavidin plate. The procedure: as §1

For experiment [8], the target named is T8, IL-33 mutant protein Q57A (human, UniProt O95760 112-270).
T8 construct: Prokaryotic expression
T8 chain: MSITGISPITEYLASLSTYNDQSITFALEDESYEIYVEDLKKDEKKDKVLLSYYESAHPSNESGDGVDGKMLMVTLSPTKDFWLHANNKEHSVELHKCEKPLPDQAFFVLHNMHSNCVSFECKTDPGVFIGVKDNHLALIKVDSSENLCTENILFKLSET
As to the kind of experiment: ELISA as Example 9; row Q57A. The procedure: (§2) SA protein was diluted to 2 μg/mL to coat ELISA plate at 100 μL/well overnight at 4° C. The plate was washed with PBST (PBS containing 0.05% Tween20) for 3 times, and blocked with 2% BSA prepared in PBS at 200 μL/well, at room temperature for 2 h. After the plate was washed twice with PBST, IL-33-his-biotin protein was diluted to 1 μg/mL with 1% BSA prepared in PBST, and was added to ELISA plate at 100 μL/well. The plate was incubated at room temperature for 1 h, and each monoclonal antibody was diluted with 1% BSA prepared in PBST in a 3-fold gradient. The highest concentration of antibody was 10 μg/mL, and the antibody was diluted for 12 gradients. Each diluted monoclonal antibody was added to ELISA wells with 100 μL/well, and the plate was incubated at room temperature for 1 h. Each sample was added to duplicate wells in parallel. The plate was washed with PBST for 3 times, and HRP-anti human IgG Fc secondary antibody prepared with PBST was diluted at an appropriate ratio, and was added to ELISA wells at 100 μL/well. […] Each reaction solution was shaken uniformly and OD450 nm was read on a microplate reader. The data was analyzed and EC₅₀ was calculated.
(§3) Subsequently, according to the experimental method of Example 9, the affinity of the above mutant proteins to 874F7-Hu1 was determined, and IL-33 proteins (WT-1, WT-2, WT-3, and WT-4) without any mutation were set as controls.

The target in experiment [9] is T9, IL-33 mutant protein H58A (human, UniProt O95760 112-270).
T9 construct: Prokaryotic expression
T9 chain: T8 chain with A57Q, H58A
As to the kind of experiment: ELISA as Example 9; row H58A against WT-1. The procedure:
as §2, §3

For experiment [10], the target named is T10, IL-33 mutant protein L50A (human, UniProt O95760 112-270).
T10 construct: Prokaryotic expression
T10 chain: T8 chain with L50A, A57Q
As to the kind of experiment: ELISA as Example 9; row L50A against WT-4. The procedure:
as §2, §3

For experiment [11], the target named is T11, IL-33 mutant protein S63A (human, UniProt O95760 112-270).
T11 construct: Prokaryotic expression
T11 chain: T8 chain with A57Q, S63A
As to the kind of experiment: ELISA as Example 9; row S63A against WT-3. The procedure:
as §2, §3

The target in experiment [12] is T12, IL-33 mutant protein S60A (human, UniProt O95760 112-270).
T12 construct: Prokaryotic expression; also called 560A
T12 chain: T8 chain with A57Q, S60A
As to the kind of experiment: ELISA by the method of Example 9 with the IL-33 mutant protein on the plate, 874F7-Hu1 in serial dilution, HRP anti-human IgG Fc, absorbance 450 nm.

B1: 874F7 (antibody, V domains shown)
VH: QVQLKESGPGLVAPSHSLSITCNVSGFSLSKYGVHWIRQIPGRGLDWLGVLRAGGSTGYNSALMSRLSISKDSSKSQVFLKMNDLRTDDTAVYFCVRDHYYYSSYGGFVYWGQGTLVTVSA
VL: DIQMTQSPASQSASLGESVTITCLASQTIGAWLAWYRQQPGKSPQLLIYAATRLADGVPSRFSGSGSGTEFSFKINNLQAEDFVSYYCQQLDSSPYTFGGGTRLEM
notes: Murine hybridoma antibody purified on Protein G; also called murine antibody 874F7
Take B1: the binding result in experiment [1], in experiment [2], in [3], in experiment [4], in [5] and in experiment [6] was “no binding (tested: 10 µg/mL)” throughout. Also, in [7], the binding result was “no binding (tested: 10 µg/mL)”.

B2: 874F7-Hu1 (antibody, human IgG4 S228P, kappa)
heavy: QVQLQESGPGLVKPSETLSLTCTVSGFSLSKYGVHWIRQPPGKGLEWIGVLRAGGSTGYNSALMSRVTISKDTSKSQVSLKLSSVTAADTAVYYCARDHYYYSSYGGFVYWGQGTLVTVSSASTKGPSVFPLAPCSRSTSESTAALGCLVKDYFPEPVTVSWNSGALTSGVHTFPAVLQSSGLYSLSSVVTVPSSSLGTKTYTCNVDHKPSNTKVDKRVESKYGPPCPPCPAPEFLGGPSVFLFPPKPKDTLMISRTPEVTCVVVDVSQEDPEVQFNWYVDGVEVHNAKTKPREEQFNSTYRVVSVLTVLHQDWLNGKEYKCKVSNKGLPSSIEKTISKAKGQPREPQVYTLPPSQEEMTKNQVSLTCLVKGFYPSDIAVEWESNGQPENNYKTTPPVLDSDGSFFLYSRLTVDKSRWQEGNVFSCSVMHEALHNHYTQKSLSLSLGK
light: DIQMTQSPSSVSASVGDRVTITCLASQTIGAWLAWYQQKPGKSPKLLIYAATRLADGVPSRFSGSGSGTDFTLTISSLQPEDFATYYCQQLDSSPYTFGQGTKVEIKRTVAAPSVFIFPPSDEQLKSGTASVVCLLNNFYPREAKVQWKVDNALQSGNSQESVTEQDSKDSTYSLSSTLTLSKADYEKHKVYACEVTHQGLSSPVTKSFNRGEC
notes: also called 874F7-Hul; humanized antibody 874F7-Hu1
B2 displayed an EC50 in experiment [8] of 0.12 nM. Also, the Affinity decline ratio in [9] was 1.9 fold; in [10], 28.5 fold; in experiment [11], 0.9 fold. The “EC50 (read off the curve)” value in experiment [12] was roughly 1 nM.
